From patent US20080027001A1 (published 2008)
Where a chain is given by its changes, count along the chain named. In names and notes the source's numbering stands. Blank lines part the entries; values can stand above or below the binder they belong to. Bridges are numbered along the chain shown (N, C = ends).

Assays:
[1] = biological target: T1, mutant NgR1 EM7 (K277D/R279D) (human, UniProt Q9BZR6 27-447); experiment: MAG-AP (10 µg/ml) on transfected COS-7 cells, AP luminescence, corrected for background and transfection efficiency
T1 construct: whole, on cells
T1 sequence (looked up): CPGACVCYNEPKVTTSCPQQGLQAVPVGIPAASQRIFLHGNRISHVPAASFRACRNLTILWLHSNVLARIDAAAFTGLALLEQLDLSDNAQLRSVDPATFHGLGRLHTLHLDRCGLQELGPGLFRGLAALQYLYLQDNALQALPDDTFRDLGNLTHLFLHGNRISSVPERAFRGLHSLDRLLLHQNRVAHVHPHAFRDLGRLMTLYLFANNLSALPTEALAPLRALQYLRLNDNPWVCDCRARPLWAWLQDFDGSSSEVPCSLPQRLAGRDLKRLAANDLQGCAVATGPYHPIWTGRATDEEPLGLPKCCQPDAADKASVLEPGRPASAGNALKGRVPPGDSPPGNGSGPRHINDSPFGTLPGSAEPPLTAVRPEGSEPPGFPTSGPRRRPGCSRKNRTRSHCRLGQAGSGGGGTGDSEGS
Protocol: (§1) The remaining cells were separately plated and assayed for surface expression of the NgR1 proteins by immunocytochemistry (Example 1.9) and for total NgR1 protein levels by Western blot analysis (Example 1.8). […] The next day, wells were rinsed once with HBAH (Hank's Balanced Salt Solution (HBSS) containing bovine serum albumin (0.5 mg/ml), NaN₃ (0.1%), and 20 mM HEPES pH 7.0) at room temperature followed by incubation with 100 μl of AP fusion protein (MAG-AP or Nogo-66-AP) diluted to a final concentration of 10 μg/ml in HBAH for 90 minutes. Wells were then washed six times with gentle shaking in HBAH at room temperature, five minutes each wash. Cells were then fixed with acetone-formaldehyde (60%-3%, in 20 mM HEPES, pH 7.0) for 15 seconds at room temperature, then washed three times for five minutes each with HBSS. Binding of AP-tagged ligands was measured using the Great EscAPe SEAP Kit (BD Biosciences) following the manufacturer's recommended protocol. Briefly, after aspirating HBSS, 60 μl of dilution buffer was added to each well, the plates were sealed, and then incubated at 65° C. for 90 min. Plates were cooled on ice and then 60 μl of assay buffer was added per well and incubated at room temperature for five minutes. Sixty microliters of diluted CSPD® substrate (Applied Biosystems, Foster City, Calif.) was then added per well, incubated for 10 minutes at room temperature, and then read on an LMAXII luminometer (Molecular Devices). Absolute binding numbers were corrected by subtracting average binding values obtained from mock-transfected controls. Binding was further corrected for sample-to-sample variations in transfection efficiency by normalizing to beta-galactosidase activity. Beta-galactosidase activity was measured using the luminescent beta-gal detection kit II (BD Biosciences) following the manufacturer's recommended protocol. Three independent binding experiments were conducted with six to eleven replicates per experiment. Background-subtracted, beta-galactosidase-corrected binding values were expressed relative to the wild type receptor.

[2] = biological target: T2, mutant NgR1 EM8 (K277A, R279A) (human, UniProt Q9BZR6 27-447); experiment: as above
T2 construct: whole, on cells
T2 sequence (looked up): T1 sequence (looked up) with D251A, D253A
Protocol: as §1

mutant NgR1 EM11 (R279A) [3] = biological target: T3, mutant NgR1 EM11 (R279A) (human, UniProt Q9BZR6 27-447); experiment: as above
T3 construct: whole, on cells
T3 sequence (looked up): T1 sequence (looked up) with D251K, D253A
Protocol: as §1

[4] = biological target: Recombinant MAG-Fc chimera (R&D Systems); experiment: cell-based or functional assay
[5] = biological target: T1, mutant NgR1 EM7 (K277D/R279D); experiment: Nogo-66-AP (10 µg/ml) on transfected COS-7 cells, AP luminescence
Protocol: as §1

[6] = biological target: T2, mutant NgR1 EM8 (K277A, R279A); experiment: as above
Protocol: as §1

mutant NgR1 EM10 (K277A) = biological target: T4, mutant NgR1 EM10 (K277A) (human, UniProt Q9BZR6 27-447); experiment: as above
T4 construct: whole, on cells
T4 sequence (looked up): T1 sequence (looked up) with D251A, D253R
Protocol: as §1

mutant NgR1 EM11 (R279A) [7] = biological target: T3, mutant NgR1 EM11 (R279A); experiment: as above
Protocol: as §1

percent reduction in binding relative to wild type NgR1 [1]: 57%
percent reduction in binding relative to wild type NgR1 [2]: 58%
percent reduction in binding relative to wild type NgR1 (mutant NgR1 EM11 (R279A) [3]): 36%
B1: MAG-AP (N-terminal human myelin associated glycoprotein amino acids 1-516, C-terminal alkaline phosphatase domain amino acids 23-511, six C-terminal histidine … (ligand)
chain: GHWGAWMPSSISAFEGTCVSIPCRFDFPDELRPAVVHGVWYFNSPYPKNYPPVVFKSRTQVVHESFQGRSRLLGDLGLRNCTLLLSNVSPELGGKYYFRGDLGGYNQYTFSEHSVLDIVNTPNIVVPPEVVAGTEVEVSCMVPDNCPELRPELSWLGHEGLGEPAVLGRLREDEGTWVQVSLLHFVPTREANGHRLGCQASFPNTTLQFEGYASMDVKYPPVIVEMNSSVEAIEGSHVSLLCGADSNPPPLLTWMRDGTVLREAVAESLLLELEEVTPAEDGVYACLAENAYGQDNRTVGLSVMYAPWKPTVNGTMVAVEGETVSILCSTQSNPDPILTIFKEKQILSTVIYESELQLELPAVSPEDDGEYWCVAENQYGQRATAFNLSVEFAPVLLLESHCAAARDTVQCLCVVKSNPEPSVAFELPSRNVTVNESEREFVYSERSGLVLTSILTLRGQAQAPPRVICTARNLYGAKSLELPFQGAHRLMWAKIGPIIPVEEENPDFWNREAAEALGAAKKLQPAQTAAKNLIIFLGDGMGVSTVTAARILKGQKKDKLGPEIPLAMDRFPYVALSKTYNVDKHVPDSGATATAYLCGVKGNFQTIGLSAAARFNQCNTTRGNEVISVMNRAKKAGKSVGVVTTTRVQHASPAGTYAHTVNRNWYSDADVPASARQEGCQDIATQLISNMDIDVILGGGRKYMFRMGTPDPEYPDDYSQGGTRLDGKNLVQEWLAKRQGARYVWNRTELMQASLDPSVTHLMGLFEPGDMKYEIHRDSTLDPSLMEMTEAALRLLSRNPRGFFLFVEGGRIDHGHHESRAYRALTETIMFDDAIERAGQLTSEEDTLSLVTADHSHVFSFGGYPLRGSSIFGLAPGKARDRKAYTVLLYGNGPGYVLKDGARPDVTESESGSPEYRQQSAVPLDEETHAGEDVAVFARGPQAHLVHGVQEQTFIAHVMAFAACLEPYTACDLAPPAGTTDAAHPGHHHHHH
notes: range 1-516;range 23-511; also called alkaline phosphatase-labeled MAG; MAG-AP fusion protein

neurite outgrowth, MAG-Fc at 20 µg/ml: reduction of peptide efficacy against NRL2b [4]: ~2 fold
Binder: Ac-CQKARGC-NH2 (disulfide 1-7 (inferred)) [NRL2bA2 (N-Ac-CQKARGC-NH2)]

binding result [5]: binds
binding result [6]: binds
binding result (mutant NgR1 EM10 (K277A)): binds
binding result (mutant NgR1 EM11 (R279A) [7]): binds
B2: Nogo-66-AP(C47V) (ligand)
chain: IIPVEEENPDFWNREAAEALGAAKKLQPAQTAAKNLIIFLGDGMGVSTVTAARILKGQKKDKLGPEIPLAMDRFPYVALSKTYNVDKHVPDSGATATAYLCGVKGNFQTIGLSAAARFNQCNTTRGNEVISVMNRAKKAGKSVGVVTTTRVQHASPAGTYAHTVNRNWYSDADVPASARQEGCQDIATQLISNMDIDVILGGGRKYMFRMGTPDPEYPDDYSQGGTRLDGKNLVQEWLAKRQGARYVWNRTELMQASLDPSVTHLMGLFEPGDMKYEIHRDSTLDPSLMEMTEAALRLLSRNPRGFFLFVEGGRIDHGHHESRAYRALTETIMFDDAIERAGQLTSEEDTLSLVTADHSHVFSFGGYPLRGSSIFGLAPGKARDRKAYTVLLYGNGPGYVLKDGARPDVTESESGSPEYRQQSAVPLDEETHAGEDVAVFARGPQAHLVHGVQEQTFIAHVMAFAACLEPYTACDLAPPAGTTDAAHPGRIYKGVIQAIQKSDEGHPFRAYLESEVAISEELVQKYSNSALGHVNVTIKELRRLFLVDDLVDSLKHHHHHH
notes: Any secretion signal in front of AP is not described; also called alkaline phosphatase-labeled Nogo-66
